Laboratory results published in patent US20090274695A1 (published 2009).

T1: Mouse uPAR, full-length, on transfected COS cells (mouse, UniProt P35456 24-298)
T1 construct: whole, on cells; also called murine uPAR
T1 sequence (looked up): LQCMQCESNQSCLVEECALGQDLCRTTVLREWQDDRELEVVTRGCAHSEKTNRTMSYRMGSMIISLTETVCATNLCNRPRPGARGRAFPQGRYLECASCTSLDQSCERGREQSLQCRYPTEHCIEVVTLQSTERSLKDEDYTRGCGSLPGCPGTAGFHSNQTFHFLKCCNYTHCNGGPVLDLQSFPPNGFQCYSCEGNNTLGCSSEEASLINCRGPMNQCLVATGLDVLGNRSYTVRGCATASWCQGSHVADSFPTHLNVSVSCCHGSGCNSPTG


What was measured:
[1] = target: T2, unnamed immobilized partner drawn in Figure 10B; test: BIAcore, two-step binding scheme. The line is printed 'ka1' a second time, but the unit 1/s and the scheme's kd1 mark it as the dissociation rate of the first step. Immobilized partner not named
T2 construct: It is drawn as a chain of three ovals held by a small tag on a cross-shaped capture molecule on the surface; This would fit biotinylated uPAR on avidin, but it carries no label, so it is not assigned to m7 or m13

[2] = target: T2, unnamed immobilized partner drawn in …; test: BIAcore, two-step binding scheme drawn beside the numbers; immobilized partner not named
[3] = target: T1, Mouse uPAR, full-length, on transfected …; test: AP fusion protein on COS cells transfected with murine uPAR, colorimetric AP assay; bar pattern assigned by bar order and by paragraph 233
[4] = target: T3, Recombinant human uPAR (R&D Systems), immobilized on a CM5 sensor chip (human, UniProt Q03405 23-303, limits assumed); test: SPR equilibrium binding, Langmuir single-site fit, three sets of readings; SPR equilibrium binding, uPAR immobilized on the chip
T3 construct: Bought protein, amine-coupled to the chip; also called immobilized uPAR
T3 sequence (Q03405 23-303 limits assumed): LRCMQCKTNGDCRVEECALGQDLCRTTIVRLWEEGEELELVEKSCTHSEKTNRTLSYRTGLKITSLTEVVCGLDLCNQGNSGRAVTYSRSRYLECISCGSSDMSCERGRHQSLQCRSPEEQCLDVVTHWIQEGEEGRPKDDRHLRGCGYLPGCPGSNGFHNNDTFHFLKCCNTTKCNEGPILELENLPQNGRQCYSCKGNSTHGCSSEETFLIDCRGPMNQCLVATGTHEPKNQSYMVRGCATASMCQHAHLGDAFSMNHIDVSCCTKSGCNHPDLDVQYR

[5] = target: T4, Human uPAR (urokinase-type plasminogen activator receptor), full-length, on transfected COS or CHO cells (human, UniProt Q03405 23-305); test: homologous competition of purified CYTL1 against CYTL1-AP on uPAR-transfected cells, three independent experiments
T4 construct: whole, on cells; GPI-anchored on the cell surface; also called uPAR-transfected cells
T4 sequence (Q03405 23-305): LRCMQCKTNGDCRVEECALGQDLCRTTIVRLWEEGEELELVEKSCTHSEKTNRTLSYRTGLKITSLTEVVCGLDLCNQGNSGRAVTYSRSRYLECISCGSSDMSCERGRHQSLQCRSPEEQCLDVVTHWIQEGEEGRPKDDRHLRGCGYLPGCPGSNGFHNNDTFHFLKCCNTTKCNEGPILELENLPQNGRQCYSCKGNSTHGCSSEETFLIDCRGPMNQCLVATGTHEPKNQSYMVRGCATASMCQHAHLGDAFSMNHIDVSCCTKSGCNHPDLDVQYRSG

| Binder | koff [1] [s⁻¹] | kon [2] [M⁻¹ s⁻¹] | binding result [3] | Kd [4] [nM] | Kd [5] [nM] |
| --- | --- | --- | --- | --- | --- |
| Human CYTL1-alkaline phosphatase fusion protein (other, Expressed in 293 cells from a pRK5-based vector and used as cell-conditioned medium; also called CYTL1-AP; human CYTL1-AP; not shown: Human placental alkaline phosphatase (AP)) TPPTCYSRMRALSQEITRDFNLLQVSEPSEPCVRYLPRLYLDIHNYCVLDKLRDFVASPPCWKVAQVDSLKDKARKLYTIMNSFCRRDLVFLLDDCNALEYPIPVTTVLPDRQR | 0.018 | 570000 | no binding |  |  |
| Purified human CYTL1 (cytokine-like 1), expressed in insect cells, poly-histidine tag cleaved (ligand, also called purified CYTL1; PRO4425) TPPTCYSRMRALSQEITRDFNLLQVSEPSEPCVRYLPRLYLDIHNYCVLDKLRDFVASPPCWKVAQVDSLKDKARKLYTIMNSFCRRDLVFLLDDCNALEYPIPVTTVLPDRQR |  |  |  | 1100 | ~1500 |
